Results taken from publication PMC9122595.

B1: S2 (dsDNA)
DNA 1: GGGCACAGACATTTTAATCA
DNA 2: TGATTAAAATGTCTGTGCCC
B2: CDC6 probe (dsDNA)
DNA 1: CGCTCCCCGGCCATCTTGGCGGCTGGT
DNA 2: ACCAGCCGCCAAGATGGCCGGGGAGCG
B3: S5M (dsDNA)
DNA 1: GCTTTCTTCGGGCTTGAAAA
DNA 2: TTTTCAAGCCCGAAGAAAGC
B4: S2M (dsDNA)
DNA 1: GGGCACAGAGGGTTTAATCA
DNA 2: TGATTAAACCCTCTGTGCCC
B5: S4M (dsDNA)
DNA 1: TGGTGCCGAGGGTTTTTTTC
DNA 2: GAAAAAAACCCTCGGCACCA
B6: S3 (dsDNA)
DNA 1: CTTGTCTGCCATTGTATCTT
DNA 2: AAGATACAATGGCAGACAAG
B7: S4 (dsDNA)
DNA 1: TGGTGCCGACATTTTTTTTC
DNA 2: GAAAAAAAATGTCGGCACCA
B8: S1 (dsDNA)
DNA 1: ATGATAAGCCATGATCACAC
DNA 2: GTGTGATCATGGCTTATCAT
B9: S5 (dsDNA)
DNA 1: GCTTTCTTCCATCTTGAAAA
DNA 2: TTTTCAAGATGGAAGAAAGC

target: T1, His6-YY1 (UniProt P25490 1-414); assay: EMSA
T1 sequence (P25490 whole entry): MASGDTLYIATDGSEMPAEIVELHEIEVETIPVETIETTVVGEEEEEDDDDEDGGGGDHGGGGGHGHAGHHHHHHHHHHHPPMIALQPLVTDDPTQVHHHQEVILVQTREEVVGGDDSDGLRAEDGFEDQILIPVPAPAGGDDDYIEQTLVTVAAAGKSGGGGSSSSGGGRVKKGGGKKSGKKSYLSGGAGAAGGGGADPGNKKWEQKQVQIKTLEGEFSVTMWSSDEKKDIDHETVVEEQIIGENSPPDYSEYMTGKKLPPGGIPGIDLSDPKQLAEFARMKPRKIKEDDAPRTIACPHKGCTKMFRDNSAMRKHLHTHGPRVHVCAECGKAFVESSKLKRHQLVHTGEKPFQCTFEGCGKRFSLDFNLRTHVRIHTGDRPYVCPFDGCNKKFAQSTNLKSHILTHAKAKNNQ

**Q.** Does B1 bind?
**A.** binds

**Q.** Does B2 bind?
**A.** binds

target: T1, His6-YY1; assay: competition

**Q.** Does B3 bind?
**A.** no binding

**Q.** Does B4 bind?
**A.** no binding

**Q.** Does B5 bind?
**A.** no binding

**Q.** Does B6 bind?
**A.** no binding

**Q.** Does B7 bind?
**A.** binds

**Q.** Does B8 bind?
**A.** no binding

**Q.** Does B9 bind?
**A.** binds
